Test results as given in patent US20230374534A1 (INDUSTRY ACADEMIC COOPERATION FOUNDATION GYEONGSANG …, published 2023).

B1: Trx-h2, endogenous protein in Arabidopsis plants (enzyme)
chain: GGALSTVFGSGEDATAAGTESEPSRVLKFSSSARWQLHFNEIKESNKLLVVDFSASWCGPCRMIEPAIHAMADKFNDVDFVKLDVDELPDVAKEFNVTAMPTFVLVKRGKEIERIIGAKKDELEKKVSKLRA
modifications: myristoylated at Gly2 at 22 °C; demyristoylated at 4 °C
notes: Native Trx-h2 that co-precipitated with CBF-Myc from plant extracts (IP/mass spectrometry and Co-IP); also called thioredoxin h2
B2: Trx-h3 (control) in the BiFC assay (enzyme, Arabidopsis, UniProt Q42403 2-118, looked up)
chain: AAEGEVIACHTVEDWTEKLKAANESKKLIVIDFTATWCPPCRFIAPVFADLAKKHLDVVFFKVDVDELNTVAEEFKVQAMPTFIFMKEGEIKETVVGAAKEEIIANLEKHKTVVAAA
notes: BiFC control; The YFP fragment fused to it is not described

Legend:
[1] = molecular target: T1, CBF1-Myc (from CBF1-Myc^OE Arabidopsis plants) (Arabidopsis thaliana, UniProt P93835 1-213); assay: anti-Myc immunoprecipitation from CBF1-Myc^OE plants (4 °C, 6 h), then MALDI-TOF/TOF mass spectrometry
T1 construct: Overexpressed in Arabidopsis under the CaMV 35S promoter; The tag is placed C-terminal because of the name CBF1-Myc; also called CBF-Myc; CBFs-Myc; not shown: Myc tag
T1 sequence (P93835 whole entry): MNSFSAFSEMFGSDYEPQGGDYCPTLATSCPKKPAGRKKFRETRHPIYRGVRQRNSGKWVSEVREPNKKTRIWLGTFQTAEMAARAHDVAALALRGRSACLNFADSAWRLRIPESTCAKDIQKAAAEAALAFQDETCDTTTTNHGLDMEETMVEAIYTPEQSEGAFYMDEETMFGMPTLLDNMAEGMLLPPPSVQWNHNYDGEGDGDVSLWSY
Method: To identify the interacting partners of CBF1 in Arabidopsis, total proteins (100 mg) were extracted from 2-week-old CBF1-Myc^OE seedlings exposed to 4° C. for 6 h, and immunoprecipitated using an anti-Myc agarose (Sigma-Aldrich, St. Louis, MO, USA). The CBF1-My c-interacting proteins were washed three times at 4° C. with a buffer containing 50 mM Tris-HCl (pH 7.5), 150 mM NaCl, 1 mM EDTA, 1 mM DTT, and 0.1% NP40. The purified proteins were mixed with SDS-PAGE loading dye, heated at 90° C. for 5 min, and separated by SDS-PAGE. Proteins were identified by matrix assisted laser desorption/ionization-time of flight (MALDI-TOF)/TOF-mass spectrometry.

[2] = molecular target: T2, YC-CBF1 (CBF1 fused to the C-terminal fragment of YFP) (Arabidopsis thaliana, UniProt P93835 1-213); assay: BiFC in Nicotiana benthamiana leaves at 4 °C (FIG. 6D)
T2 construct: BiFC construct expressed in Nicotiana benthamiana leaves; also called YC-CBFs; not shown: C-terminal fragment of YFP (YC)
T2 sequence (P93835 whole entry, the tested form may be a part): as the sequence (P93835 whole entry) above
Method: Interaction between Trx-h2 and CBFs under specific conditions was analyzed using the BiFC assay. Trx-h2 and CBFs were cloned individually into the gateway BiFC-binary vector, pDONR221, to generate pDONR221: Trx-h2 and pDONR221: CBF plasmids, respectively. The Trx-h2-YN plasmid was generated by fusing Trx-h2 with the N-terminal fragment of YFP (YN), while the YC-CBF plasmids were constructed by fusing each of the three CBFs with the C-terminal fragment of YFP (YC). These plasmids were introduced into A. tumefaciens strain GV3101, and the transformed cells were used to infiltrate the leaves of 4-week-old N. benthamiana plants. These plants were incubated at 26° C. for 2 days and then exposed to 4° C. for 6 h. Fluorescence signals generated by YFP were analyzed under a confocal microscope using the FV10-ASW 3.1 software.

| Binder | binding result [1] | binding result [2] |
| --- | --- | --- |
| B1 | binds | – |
| B2 | – | no binding |
